Data on 6 molecules can be found in article PMC3402500, “Genes for Carbon Metabolism and the ToxA Virulence Factor in Pseudomonas aeruginosa Are Regulated through Molecular Interactions of PtxR and PtxS” (PLoS ONE, 2012).

T1: PtxR (Pseudomonas aeruginosa PAO1) (UniProt P72131)
T1 sequence: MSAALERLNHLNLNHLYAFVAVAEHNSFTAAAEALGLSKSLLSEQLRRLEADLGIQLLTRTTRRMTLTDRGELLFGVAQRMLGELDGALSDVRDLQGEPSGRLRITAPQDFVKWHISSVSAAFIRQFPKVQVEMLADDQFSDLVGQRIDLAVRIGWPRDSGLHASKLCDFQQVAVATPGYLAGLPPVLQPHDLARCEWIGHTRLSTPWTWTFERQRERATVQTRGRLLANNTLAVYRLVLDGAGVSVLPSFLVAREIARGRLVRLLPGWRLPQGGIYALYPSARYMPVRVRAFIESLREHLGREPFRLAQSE

T2: PtxS (Pseudomonas aeruginosa PAO1) (UniProt G3XD97)
T2 sequence: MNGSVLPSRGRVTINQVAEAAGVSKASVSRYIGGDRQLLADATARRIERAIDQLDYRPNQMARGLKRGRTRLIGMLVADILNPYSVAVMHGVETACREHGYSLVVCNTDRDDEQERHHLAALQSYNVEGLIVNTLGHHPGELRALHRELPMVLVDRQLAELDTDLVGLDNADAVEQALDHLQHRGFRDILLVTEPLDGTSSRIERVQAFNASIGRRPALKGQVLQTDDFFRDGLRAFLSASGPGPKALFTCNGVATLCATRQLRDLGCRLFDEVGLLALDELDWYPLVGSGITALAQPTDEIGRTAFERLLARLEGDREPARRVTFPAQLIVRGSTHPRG

T3: PtxR;PtxS (Pseudomonas aeruginosa PAO1;Pseudomonas aeruginosa PAO1) (UniProt P72131+G3XD97)
T3 sequence 1: T1 sequence
T3 sequence 2: T2 sequence

T4: PtxR (Pseudomonas aeruginosa PAO1, UniProt P72131 1-312)
T4 sequence: T1 sequence

T5: PtxS (Pseudomonas aeruginosa PAO1, UniProt G3XD97 1-340)
T5 sequence: T2 sequence

B1: PtoxA 50-mer (-58 to -8) (dsDNA)
DNA 1: GATATCGGCTGCTGGCCAGGGGCGCCAGCGCCGACAGCCTCGTGCTTCAA
DNA 2: TTGAAGCACGAGGCTGTCGGCGCTGGCGCCCCTGGCCAGCAGCCGATATC
B2: PtxS (natural protein)
chain: T2 sequence
notes: PtxS, LacI family transcriptional regulator of Pseudomonas aeruginosa PAO1; ptxS gene amplified from chromosomal DNA and cloned NheI/XhoI into pET24b(+); The NheI/XhoI cloning into pET24b(+) may add a few vector residues at both ends; source: E. coli BL21 (DE3), purified (His-Trap chelating column); not shown: His6, C-terminal, kept
B3: PtxR (natural protein)
chain: T1 sequence
notes: PtxR, LysR-type transcriptional regulator of Pseudomonas aeruginosa PAO1; ptxR gene amplified from chromosomal DNA and cloned NheI/XhoI into pET24b(+); The NheI/XhoI cloning into pET24b(+) may add a few vector residues at both ends; source: E. coli BL21 (DE3), purified (His-Trap chelating column); not shown: His6, C-terminal, kept
B4: PtoxA 50-mer mutant operator (dsDNA)
DNA 1: GATATCGGCTGCTGGCCAGGCCGACAGCCTCGTGCTTCAA
DNA 2: TTGAAGCACGAGGCTGTCGGCCTGGCCAGCAGCCGATATC

Data set [1] addresses T1, PtxR (Pseudomonas aeruginosa PAO1). The experiment in a line: EMSA. Conditions: ITC: 50 mM HEPES pH 7.9, 300 mM NaCl, 1 mM DTT, 10% glycerol, 20 C. EMSA/footprint: 50 mM Tris-HCl pH 7.5, 10 mM NaCl, 0.5 M Mg acetate (so in the source), 0.1 mM …. (In general: A gel shift assay detects complexes by their altered migration in electrophoresis.)
The target of data set [2] is T2, PtxS (Pseudomonas aeruginosa PAO1). The experiment in a line: EMSA. Conditions: ITC: 50 mM HEPES pH 7.9, 300 mM NaCl, 1 mM DTT, 10% glycerol, 20 C. EMSA/footprint: 50 mM Tris-HCl pH 7.5, 10 mM NaCl, 0.5 M Mg acetate (so in the source), 0.1 mM ….
Data set [3] addresses T3, PtxR;PtxS (Pseudomonas aeruginosa PAO1;Pseudomonas aeruginosa PAO1). Description: DNase I footprinting. Conditions: ITC: 50 mM HEPES pH 7.9, 300 mM NaCl, 1 mM DTT, 10% glycerol, 20 C. EMSA/footprint: 50 mM Tris-HCl pH 7.5, 10 mM NaCl, 0.5 M Mg acetate (so in the source), 0.1 mM ….
In data set [4] the target is T1, PtxR (Pseudomonas aeruginosa PAO1). Description: DNase I footprinting. Conditions: ITC: 50 mM HEPES pH 7.9, 300 mM NaCl, 1 mM DTT, 10% glycerol, 20 C. EMSA/footprint: 50 mM Tris-HCl pH 7.5, 10 mM NaCl, 0.5 M Mg acetate (so in the source), 0.1 mM ….
The target in data set [5] is T2, PtxS (Pseudomonas aeruginosa PAO1). The experiment in a line: DNase I footprinting. Conditions: ITC: 50 mM HEPES pH 7.9, 300 mM NaCl, 1 mM DTT, 10% glycerol, 20 C. EMSA/footprint: 50 mM Tris-HCl pH 7.5, 10 mM NaCl, 0.5 M Mg acetate (so in the source), 0.1 mM ….
In a further data set the target is PtxR S40A (Pseudomonas aeruginosa PAO1, UniProt P72131 1-312, S40A). The experiment in a line: ITC; ITC: 50 mM HEPES pH 7.9, 300 mM NaCl, 1 mM DTT, 10% glycerol, 20 C. EMSA/footprint: 50 mM Tris-HCl pH 7.5, 10 mM NaCl, 0.5 M Mg acetate (so in the source), 0.1 mM EDTA, 1 mM DTT, 5% glycerol, 30 C; EMSA with 20 ug/ml poly(dIC), 200 ug/ml BSA. Conditions: protein: recombinant; tags: C-terminal His6 (pET24b); chain copies: 4; blunt. Background: Isothermal titration calorimetry measures the heat released or taken up as one component is titrated into another.

For the next data set, the target named is PtxR K39A (Pseudomonas aeruginosa PAO1, UniProt P72131 1-312, K39A). Described as above. Conditions: protein: recombinant; tags: C-terminal His6 (pET24b); chain copies: 4; blunt.
Data set [6] has as its target T4, PtxR. The description is as above. Conditions: protein: recombinant; tags: C-terminal His6 (pET24b); chain copies: 4; blunt.
A further data set concerns the target PtxR E44A (Pseudomonas aeruginosa PAO1, UniProt P72131 1-312, E44A). Described as above. Conditions: protein: recombinant; tags: C-terminal His6 (pET24b); chain copies: 4; blunt.
The next data set concerns the target PtxR D52A (Pseudomonas aeruginosa PAO1, UniProt P72131 1-312, D52A). The data set is described as above. Conditions: protein: recombinant; tags: C-terminal His6 (pET24b); chain copies: 4; blunt.
Data set [7] has as its target T5, PtxS. The data set is described as above. Conditions: protein: recombinant; tags: C-terminal His6 (pET24b); chain copies: 2; blunt.
In another data set the target is PtxR R47A (Pseudomonas aeruginosa PAO1, UniProt P72131 1-312, R47A). Described as above. Conditions: protein: recombinant; tags: C-terminal His6 (pET24b); chain copies: 4; blunt.
Data set [8] addresses B3. Description: ITC; 5 µM PtxR saturated beforehand with 50 µM duplex DNA of P_(toxA) holding the PtxR operator, titrated with 50 µM PtxS; 20°C, 50 mM HEPES pH 7.9, 300 mM NaCl, 1 mM dithiothreitol, 10% glycerol; two binding site model. Conditions: both partners purified.
In data set [9] the target is B3. The experiment in a line: ITC; free proteins; 50 µM PtxS in 3.2 µl aliquots into PtxR (3 µM by the legend); 20°C, 50 mM HEPES pH 7.9, 300 mM NaCl, 1 mM dithiothreitol, 10% glycerol; two binding site model. Conditions: both partners purified.
Data set [10] concerns the target B2. The experiment in a line: native gel or EMSA; native polyacrylamide gel, 10 µM homogeneous PtxS, PtxR or both mixed, 1 h at 120 V, Coomassie stain, confirmed by western blot with an anti-His tag antibody. Conditions: both partners purified.

Consider “CAACTGATCGTTCGCGGCTCGACCCATCCACGCGGCTAGCGGCCCGCCGCCGGCGCGTTGCCGGCGGCTTTCGCACGGCTTGAAATGAAACCGGTTTCAGAGGATCGCCAATGTCCCTTCACCCCGTCTCCATCAGTCTTTCCAGCTATGGCGCGGACCTCGTTCGCAGTCGCGGCCAGGCCAGCTTCCTGCCCTTGCTGGCGATGGCCGGCGCGCAGCGCGTGGAACTGCGCGAGGAACTCTTCGCCGGCCCGCCGGATACCGAGGCGCTGACCGCCGCCATCCAGTT (double strand) [Pkgu promoter fragment]”, for which the binding entry in data set [1] and in [2] was “binds” throughout.
Consider “CCGTTGACGGCCTTGTCATCGGGCATGGTGGGGTCCTCTCTGGATCATCACGGTTTCGTCTTTCTGATAATGATTAGCAGGCTAATTATAAGTTCATGTGTCACGTTGAAAAAACGTTTCAGCAAGGATTCAGGCAGGCCAATACCGGCAAGTGAAGCAGAACGGCGCGCCGGGCGTCGGCCCGGCGCGGCCTTCAGGCGCCTCGCCGTCGCGCCCAGGCCGAAGGATTGACCAGGTTCAGCGGCC (double strand) [Pgad promoter fragment]”, for which the binding entry in data set [1], in data set [2], in [3], in data set [4] and in [5] was “binds” each time.
On to B1, for which the binding result in the data set with PtxR S40A, with PtxR K39A, with PtxR E44A, in the data set with PtxR D52A and with PtxS [7] was “no binding” in each case. Moreover, the Kd with PtxR [6] worked out at 0.164 ± 0.006 µM; with PtxR R47A, 0.24 ± 0.011 µM.
Take B2: in the data set with PtxR [8], the “KD of the first event, PtxR bound to DNA” value is approximately 1.7 µM and the “KD of the second event, PtxR bound to DNA” value is approximately 8.2 µM. Besides, in the data set with PtxR [9], the “KD of the first, high affinity event” value is 0.012 ± 0.003 µM; the “KD of the second, lower affinity event” value turned out to be 0.102 ± 0.01 µM; the “dH of the first, high affinity event” value is -74.5 ± 3.77 kJ/mol; the “dH of the second, lower affinity event” value is -38.1 ± 2.09 kJ/mol. Besides, the “stoichiometry N” value in the data set with PtxR [9] was determined as 1.02.
Consider B3, for which, in the data set with PtxS [10], the binding result is reported as “binds”.
Take B4: the binding result in the data set with PtxR [6] was “no binding”.

The term Kd denotes the concentration at which binding is half-saturated. One may read the stoichiometry N as the number of molecules, sites or subunits per partner or assembly.
